Experimental data from patent US20210253718A1 (MODMAB THERAPEUTICS, published 2021).
Changes are numbered by the printed parent chain.

Assays:
[1] = target: T1, FZD8 cysteine-rich domain (CRD), MYC-tagged and GPI-anchored on CHO cells (human, UniProt Q498S8 31-155 (rat entry), GPI anchor); test: immunofluorescence, CHO-CRD cells
T1 construct: also called FZD8 CRD; CHO-myc-FZDGPI; not shown: MYC tag and GPI anchor signal
T1 sequence: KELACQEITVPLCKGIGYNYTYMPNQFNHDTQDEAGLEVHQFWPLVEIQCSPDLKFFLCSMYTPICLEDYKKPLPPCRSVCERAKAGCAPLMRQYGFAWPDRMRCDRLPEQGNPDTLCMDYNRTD

[2] = target: T2, FZD10 cysteine-rich domain (CRD), MYC-tagged and GPI-anchored on CHO cells (human, UniProt Q9ULW2 30-156, GPI anchor); test: immunofluorescence, CHO-CRD cells
T2 construct: also called FZD10 CRD; CHO-myc-FZDGPI; not shown: MYC tag and GPI anchor signal
T2 sequence: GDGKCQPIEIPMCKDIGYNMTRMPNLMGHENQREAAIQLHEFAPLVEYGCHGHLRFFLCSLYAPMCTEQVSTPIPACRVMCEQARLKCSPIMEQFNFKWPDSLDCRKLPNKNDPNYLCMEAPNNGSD

[3] = target: T3, FZD9 cysteine-rich domain (CRD), MYC-tagged and GPI-anchored on CHO cells (human, UniProt O00144 35-161, GPI anchor); test: immunofluorescence, CHO-CRD cells
T3 construct: also called FZD9 CRD; CHO-myc-FZDGPI; not shown: MYC tag and GPI anchor signal
T3 sequence: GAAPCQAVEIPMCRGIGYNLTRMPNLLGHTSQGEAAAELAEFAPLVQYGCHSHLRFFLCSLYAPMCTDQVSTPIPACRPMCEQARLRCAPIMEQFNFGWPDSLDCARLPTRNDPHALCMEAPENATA

[4] = target: T4, FZD6 cysteine-rich domain (CRD), MYC-tagged and GPI-anchored on CHO cells (human, UniProt O60353 20-146, GPI anchor); test: immunofluorescence, CHO-CRD cells
T4 construct: also called FZD6 CRD; CHO-myc-FZDGPI; not shown: MYC tag and GPI anchor signal
T4 sequence: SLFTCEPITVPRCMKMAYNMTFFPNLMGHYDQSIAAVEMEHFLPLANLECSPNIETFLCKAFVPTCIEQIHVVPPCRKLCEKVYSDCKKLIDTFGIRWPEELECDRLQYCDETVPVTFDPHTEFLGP

[5] = target: T5, FZD3 cysteine-rich domain (CRD), MYC-tagged and GPI-anchored on CHO cells (human, UniProt Q9NPG1 24-150, GPI anchor); test: immunofluorescence, CHO-CRD cells
T5 construct: domain: cysteine-rich domain (CRD); also called FZD3 CRD; CHO-myc-FZDGPI; not shown: MYC tag and GPI anchor signal
T5 sequence (looked up): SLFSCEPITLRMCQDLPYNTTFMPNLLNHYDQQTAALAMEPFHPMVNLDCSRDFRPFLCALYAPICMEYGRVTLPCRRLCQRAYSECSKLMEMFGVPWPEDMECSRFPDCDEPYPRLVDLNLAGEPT

[6] = target: T6, FZD4 cysteine-rich domain (CRD), MYC-tagged and GPI-anchored on CHO cells (human, UniProt Q9ULV1 42-167, GPI anchor); test: immunofluorescence, CHO-CRD cells
T6 construct: also called FZD4 CRD; CHO-myc-FZDGPI; not shown: MYC tag and GPI anchor signal
T6 sequence: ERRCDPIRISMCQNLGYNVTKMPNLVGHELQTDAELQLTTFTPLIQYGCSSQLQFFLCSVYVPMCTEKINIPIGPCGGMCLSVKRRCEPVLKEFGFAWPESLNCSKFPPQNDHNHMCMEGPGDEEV

[7] = target: T1, FZD8 cysteine-rich domain (CRD), …; test: flow cytometry, CHO-CRD cells;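 note: flow cytometry of Fab binding to CHO cells overexpressing a Frizzled CRD, with binding defined as median fluorescence over twice that of CHO cells lacking any Frizzled CRD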
Protocol: (§1) Binding was measured via flow cytometry analysis of CHO cells overexpressing CRD of FZD1, FZD2, FZD3, FZD4, FZD5, FZD6, FZD7, FZD8, FZD9 or FZD10. Median fluorescence values are shown.

[8] = target: T2, FZD10 cysteine-rich domain (CRD), …; test: flow cytometry, CHO-CRD cells;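 note: flow cytometry of Fab binding to CHO cells overexpressing a Frizzled CRD, with binding defined as median fluorescence over twice that of CHO cells lacking any Frizzled CRD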
Protocol: as §1

[9] = target: T3, FZD9 cysteine-rich domain (CRD), …; test: flow cytometry, CHO-CRD cells;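 note: flow cytometry of Fab binding to CHO cells overexpressing a Frizzled CRD, with binding defined as median fluorescence over twice that of CHO cells lacking any Frizzled CRD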
Protocol: as §1

[10] = target: T4, FZD6 cysteine-rich domain (CRD), …; test: flow cytometry, CHO-CRD cells;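 note: flow cytometry of Fab binding to CHO cells overexpressing a Frizzled CRD, with binding defined as median fluorescence over twice that of CHO cells lacking any Frizzled CRD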
Protocol: as §1

[11] = target: T5, FZD3 cysteine-rich domain (CRD), …; test: flow cytometry, CHO-CRD cells
Protocol: as §1

[12] = target: T7, FZD5 cysteine-rich domain (CRD), MYC-tagged and GPI-anchored on CHO cells (human, UniProt Q13467 29-156, GPI anchor); test: flow cytometry, CHO-CRD cells
T7 construct: also called FZD5 CRD; CHO-myc-FZDGPI; not shown: MYC tag and GPI anchor signal
T7 sequence: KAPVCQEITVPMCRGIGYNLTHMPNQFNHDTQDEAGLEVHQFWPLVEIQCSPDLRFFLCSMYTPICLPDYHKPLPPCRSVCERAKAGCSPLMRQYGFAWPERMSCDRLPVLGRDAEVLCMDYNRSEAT

[13] = target: T6, FZD4 cysteine-rich domain (CRD), …; test: flow cytometry, CHO-CRD cells
Protocol: as §1

[14] = target: T8, FZD1 cysteine-rich domain (CRD), MYC-tagged and GPI-anchored on CHO cells (human); test: flow cytometry, CHO-CRD cells
Protocol: as §1

[15] = target: T9, FZD7 cysteine-rich domain (CRD), MYC-tagged and GPI-anchored on CHO cells (human, UniProt O75084 45-169); test: flow cytometry, CHO-CRD cells
Protocol: as §1

[16] = target: T10, FZD2 cysteine-rich domain (CRD), MYC-tagged and GPI-anchored on CHO cells (human, UniProt Q14332 35-161); test: flow cytometry, CHO-CRD cells
Protocol: as §1

[17] = target: T1, FZD8 cysteine-rich domain (CRD), …; test: flow cytometry on CHO-GPI cells over-expressing the Frizzled CRD;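 note: binding of recombinant anti-Frizzled Fabs to the cells, read as fold mean fluorescence intensity above secondary-antibody-only background and normalized to control CHO-GPI cells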
Description: (§2) Specificity profiling of the Frizzled profiler Fabs by flow cytometry in CHO-GPI cells over-expressing CRDs of FZD1, FZD2, FZD3, FZD4, FZD5, FZD6, FZD7, FZD8, FZD9 or FZD10. Numerical values indicate a fold-increase in mean fluorescence intensity of the reacting Fab over the background (secondary antibody alone) normalized to the control (C, CHO-GPI).
(§3) To characterize the binding specificity of these Fabs on cells, a panel of 10 CHO cell lines was generated, each expressing the CRD domain of a different myc-tagged Frizzled family member anchored at the plasma membrane through a GPI anchor (CHO-myc-FZDGPI).

[18] = target: T8, FZD1 cysteine-rich domain (CRD), …; test: as above
Description: as §2, §3

[19] = target: T2, FZD10 cysteine-rich domain (CRD), …; test: as above
Description: as §2, §3

[20] = target: T3, FZD9 cysteine-rich domain (CRD), …; test: as above
Description: as §2, §3

[21] = target: T4, FZD6 cysteine-rich domain (CRD), …; test: as above
Description: as §2, §3

[22] = target: T9, FZD7 cysteine-rich domain (CRD), …; test: as above
Description: as §2, §3

[23] = target: T5, FZD3 cysteine-rich domain (CRD), …; test: as above
Description: as §2, §3

[24] = target: T7, FZD5 cysteine-rich domain (CRD), …; test: as above
Description: as §2, §3

[25] = target: T10, FZD2 cysteine-rich domain (CRD), …; test: as above
Description: as §2, §3

[26] = target: T6, FZD4 cysteine-rich domain (CRD), …; test: as above
Description: as §2, §3

B1: Fab-2908 (Fab, V domains shown)
VH: EVQLVESGGGLVQPGGSLRLSCAASGFNFSSSSIHWVRQAPGKGLEWVAYIYPSYSYTYYADSVKGRFTISADTSKNTAYLQMNSLRAEDTAVYYCARAYYGHFHAMDYWGQGTLVTVSS
VL: DIQMTQSPSSLSASVGDRVTITCRASQSVSSAVAWYQQKPGKAPKLLIYSASSLYSGVPSRFSGSRSGTDFTLTISSLQPEDFATYYCQQSSYSLITFGQGTKVEIK
notes: Fab; also called Fv-2908
Q: What does the source list for B1?
A: binding result [1]: no binding; binding result [2]: no binding; binding result [3]: no binding; binding result [4]: no binding; binding result [5]: no binding; binding result [6]: no binding; median fluorescence [7]: 5.52; median fluorescence [8]: 3.08; median fluorescence [9]: 3.13; median fluorescence [10]: 2.89; median fluorescence [11]: 3.22; median fluorescence [12]: 25.5; median fluorescence [13]: 4.57

B2: Fab-2911 (Fab, V domains shown)
VH: EVQLVESGGGLVQPGGSLRLSCAASGFNIYYSSMHWVRQAPGKGLEWVAYIYPYSGYTSYADSVKGRFTISADTSKNTAYLQMNSLRAEDTAVYYCARYFWWYGFDYWGQGTLVTVSS
VL: B1 VL with S91G, S92P, Y93W, S94Y, L95P, I96F
notes: Fab; also called Fv-2911
Q: Does B2 bind [1]?
A: Result: no binding

Q: Does B2 bind [2]?
A: Result: no binding

Q: Does B2 bind [3]?
A: Result: no binding

Q: Does B2 bind [4]?
A: Result: no binding

Q: Does B2 bind [5]?
A: Result: no binding

Q: Does B2 bind [6]?
A: Result: no binding

Q: And the median fluorescence [7]?
A: The median fluorescence was 7.43.

Q: And the median fluorescence [14]?
A: Its median fluorescence is 38.2.

Q: And the median fluorescence [8]?
A: The median fluorescence was 3.96.

Q: What about the median fluorescence [9] of the same binder?
A: The median fluorescence was 4.1.

Q: What about the median fluorescence [10] of the same binder?
A: Its median fluorescence is 3.68.

Q: What about the median fluorescence [15] of the same binder?
A: The median fluorescence was 43.3.

Q: What about the median fluorescence [11] of the same binder?
A: Its median fluorescence is 4.96.

Q: And the median fluorescence [12]?
A: Its median fluorescence is 20.5.

Q: What about the median fluorescence [16] of the same binder?
A: Its median fluorescence is 22.7.

Q: And the median fluorescence [13]?
A: Its median fluorescence is 6.21.

B3: Fab-2921 (Fab, V domains shown)
VH: EVQLVESGGGLVQPGGSLRLSCAASGFNISYYYIHWVRQAPGKGLEWVASIYPSSGSTSYADSVKGRFTISADTSKNTAYLQMNSLRAEDTAVYYCARGAMDYWGQGTLVTVSS
VL: DIQMTQSPSSLSASVGDRVTITCRASQSVSSAVAWYQQKPGKAPKLLIYSASSLYSGVPSRFSGSRSGTDFTLTISSLQPEDFATYYCQQWYAGSLITFGQGTKVEIK
notes: Fab
Q: Which results are given for B3?
A: fold-increase in mean fluorescence intensity over background (secondary antibody alone), normalized to control CHO-GPI [17]: 6.8 fold; binding result [18]: no binding (tested: 200 nM); binding result [19]: no binding (tested: 200 nM); binding result [20]: no binding (tested: 200 nM); binding result [21]: no binding (tested: 200 nM); binding result [22]: no binding (tested: 200 nM); binding result [23]: no binding (tested: 200 nM); fold-increase in mean fluorescence intensity over background (secondary antibody alone), normalized to control CHO-GPI [24]: 14 fold; binding result [25]: no binding (tested: 200 nM); binding result [26]: no binding (tested: 200 nM); median fluorescence [7]: 6.98; median fluorescence [14]: 4.53; median fluorescence [8]: 2.48; median fluorescence [9]: 2.94; median fluorescence [10]: 2.67; median fluorescence [15]: 4.37; median fluorescence [11]: 3.59; median fluorescence [12]: 29.4; median fluorescence [16]: 4.37; median fluorescence [13]: 4.1
